In patent publication US20240076403A1 (SIMCERE ZAIMING PHARMACEUTICAL, published 2024):

B1: Tab050 (2C4 human IgG1, Pertuzumab) (antibody, V domains shown)
VH: EVQLVESGGGLVQPGGSLRLSCAASGFTFTDYTMDWVRQAPGKGLEWVADVNPNSGGSIYNQRFKGRFTLSVDRSKNTLYLQMNSLRAEDTAVYYCARNLGPSFYFDYWGQGTLVTVSS
VL: DIQMTQSPSSLSASVGDRVTITCKASQDVSIGVAWYQQKPGKAPKLLIYSASYRYTGVPSRFSGSGSGTDFTLTISSLQPEDFATYYCQQYYIYPYTFGQGTKVEIKR
notes: control antibody, human IgG1
B2: Tab048 (FRP5 human IgG1) (antibody, V domains shown)
VH: QVQLQQSGPELKKPGETVKISCKASGYPFTNYGMNWVKQAPGQGLKWMGWINTSTGESTFADDFKGRFDFSLETSANTAYLQINNLKSEDMATYFCARWEVYHGYVPYWGQGTTVTVSS
VL: DIQLTQSHKFLSTSVGDRVSITCKASQDVYNAVAWYQQKPGQSPKLLIYSASSRYTGVPSRFTGSGSGPDFTFTISSVQAEDLAVYFCQQHFRTPFTFGSGTKLEIKR
notes: control antibody, human IgG1
B3: Tab048 (FRP5 human IgG1) (antibody, V domains shown)
VH: B2 VH
VL: B2 VL
notes: Control antibody in human IgG1 form

Key:
[1] = target: T1, monkey HER2-His protein (Sino Biological, Cat. No. 90295-C08H) (monkey); test: ELISA, 0.1 nM
T1 construct: also called monkey HER2 protein

[2] = target: T1, monkey HER2-His protein (Sino …); test: ELISA, 0.0001 nM
[3] = target: T1, monkey HER2-His protein (Sino …); test: ELISA, 0.00001 nM
[4] = target: T1, monkey HER2-His protein (Sino …); test: ELISA, 100 nM
[5] = target: T1, monkey HER2-His protein (Sino …); test: ELISA, 0.001 nM
[6] = target: T1, monkey HER2-His protein (Sino …); test: ELISA, 10 nM
[7] = target: T1, monkey HER2-His protein (Sino …); test: ELISA, 1 nM
[8] = target: T1, monkey HER2-His protein (Sino …); test: ELISA, 0.01 nM
monkey HER2-His protein = target: T2, monkey HER2-His protein (monkey); test: SPR, antibody captured on Protein A chip, monkey HER2-His analyte, 1:1 model
T2 construct: Bought protein; also called monkey HER2 protein

[9] = target: T3, recombinant human HER2-His protein (human, UniProt P04626 23-652, limits assumed); test: SPR, antibody captured on Protein A chip, human HER2-His analyte, 1:1 model
T3 construct: also called human HER2 protein; not shown: His tag
Method: The sample and running buffer were HBS-EP+ (10 mM HEPES, 150 mM NaCl, 3 mM EDTA, 0.05% surfactant P20) (GE Healthcare; BR-1006-69). The flow cell was set at 25° C. The sample block was set at 16° C. Both were pretreated with the running buffer. In each cycle, first, the antibody to be tested was captured using the Protein A chip, and then a single concentration of HER2 antigen protein was injected. The association and dissociation processes of the antibody with the antigen protein were recorded, and finally, the chip was regenerated using Glycine pH 1.5 (GE Healthcare; BR-1003-54). The association was determined by injecting different concentrations of recombinant human HER2-His in the solution and maintaining for 240 s, wherein the flow rate was 30 μL/min, and the protein was diluted in a 1:1 dilution ratio from 200 nM (see detailed results for actual concentrations tested) to obtain 5 concentrations in total. The dissociation phase was monitored for up to 600 s and triggered by switching from the sample solution to the running buffer. The surface was regenerated by washing with 10 mM glycine solution (pH 1.5) at a flow rate of 30 μL/min for 30 s. The difference in bulk refractive index was corrected by subtracting the responses obtained from the goat anti-human Fc surface. Blank injections were also subtracted (=double referencing). To calculate the apparent KD and other kinetic parameters, the Langmuir 1:1 model was used.

Binder	OD450 [1]	OD450 [2]	OD450 [3]	OD450 [4]	OD450 [5]	OD450 [6]	OD450 [7]	OD450 [8]	Kd (monkey HER2-His protein) [nM]	koff (monkey HER2-His protein) [s⁻¹]	kon (monkey HER2-His protein) [M⁻¹ s⁻¹]	Kd [9] [nM]	koff [9] [s⁻¹]	kon [9] [M⁻¹ s⁻¹]
B1	1.11	0.06	0.05	2.42	0.06	2.15	2.04							
B2	1.83	0.05	0.05	2.35	0.11	2.04	2.24	0.52						
B3									0.617	0.000118	191000	0.337	7.45e-05	221000
